Measurements taken from patent US20220017615A1 (SHANGHAI PHARMAEXPLORER, published 2022).

How the values were obtained:
[1] = molecular target: T1, biotin-labeled CD47 extracellular domain protein (CD47-ECD) (UniProt Q08722 19-139, limits assumed, biotin-labeled (sites not given)); assay: blocking ELISA, biotin-CD47-ECD on coated SIRPα-hFc; Ab 0.064 nM
T1 construct: extracellular domain; also called CD47 protein

[2] = molecular target: T2, cynomolgus CD47, on CHOK1-cCD47 stable cell line (cynomolgus); assay: FACS CHOK1-cCD47; Ab 8 nM
T2 construct: whole, on cells; check before use; also called CHOK1/cynoCD47; monkey-derived CD47
Description: (§1) The CHOK1-hCD47 stable cell lines and CHOK1-cCD47 stable cell lines were expanded to 90% confluence in a T-75 cell culture flask, the medium was exhausted, washed twice with HBSS buffer (Hanks balanced salt solution) (purchased from Invitrogen), and then treated and collected with enzyme-free cell dissociation solution (Versene solution: purchased from Life technology). The cells were washed twice with HBSS buffer. After counted, the cells were diluted with HBSS to 2×10⁶ cells per ml, added with 1% goat serum blocking solution, wherein the percentage was the mass percantage, incubated on ice for 30 minutes, and then washed twice with HBSS by centrifugation. […] The plate was washed 3 times with FACS buffer by centrifugation, added with 100 μl fixative solution [4% (v/v) Paraformaldehyde] per well to suspend the cells. 10 minutes later, it was washed twice with FACS buffer by centrifugation. The cells were suspended with 100 microliters of FACS buffer, FACS (FACS Calibur, purchased from BD) was used for detection and the results were analyzed.

[3] = molecular target: T3, human CD47, full length, on transfected cells (human, UniProt Q08722 19-323); assay: FACS CHOK1-hCD47; Ab 8 nM
T3 construct: whole, on cells; also called CHOK1-hCD47
Description: as §1

[4] = molecular target: T1, biotin-labeled CD47 extracellular …; assay: blocking ELISA, biotin-CD47-ECD on coated SIRPα-hFc; Ab 0.32 nM
Description: (§2) The plate was sealed with plastic film and incubated at 4° C. overnight. The plate was washed twice with plate washing solution [PBS+0.01% (v/v) Tween20] on the next day, and blocking solution [PBS+0.01% (v/v) Tween20 +1% (w/w) BSA] was added to block it at room temperature for 2 hours. […] After incubation at 37° C. for 2 hours, the plate was washed three times with the plate washing solution [PBS+0.01% (v/v) Tween 20]. HRP (horseradish peroxidase) labeled avidin diluent (purchased from Sigma) was added as 100 microliters per well, and after the plate was incubated for 2 hours at 37° C., it was washed 3 times with washing solution [PBS+0.01% (v/v) Tween 20]. 100 μl of TMB substrate was added to each well. After incubated at room temperature for 30 minutes, the plate was added with 100 μl of stop solution (1.0N HCl) to each well.

[5] = molecular target: T4, His-tagged CD47 recombinant protein, CD47-His (human, UniProt Q08722 19-141, limits assumed); assay: ELISA on coated CD47-His; Ab 0.533 nM
T4 construct: it is not restated for CD47-His; also called human CD47-His protein; antigen CD47-His; not shown: His tag

[6] = molecular target: T3, human CD47, full length, on transfected …; assay: FACS CHOK1-hCD47; Ab 0.32 nM
Description: as §1

[7] = molecular target: T2, cynomolgus CD47, on CHOK1-cCD47 stable …; assay: FACS CHOK1-cCD47; Ab 40 nM
Description: as §1

[8] = molecular target: T2, cynomolgus CD47, on CHOK1-cCD47 stable …; assay: FACS CHOK1-cCD47; Ab 0.32 nM
Description: as §1

[9] = molecular target: T2, cynomolgus CD47, on CHOK1-cCD47 stable …; assay: FACS CHOK1-cCD47; Ab 1.6 nM
Description: as §1

[10] = molecular target: T2, cynomolgus CD47, on CHOK1-cCD47 stable …; assay: FACS CHOK1-cCD47; Ab 200 nM
Description: as §1

[11] = molecular target: T4, His-tagged CD47 recombinant protein, …; assay: ELISA on coated CD47-His; Ab 13.333 nM
Description: (§3) The plate was sealed with plastic film and incubated at 4° C. overnight. The plate was washed twice with plate washing solution [PBS+0.01% (v/v) Tween20] the next day, and blocking solution [PBS+0.01% (v/v) Tween20 +1% (w/w) BSA] was added to block it at room temperature for 2 hours. […] After incubation at 37° C. for 2 hours, the plates were washed three times with plate washing solution [PBS+0.01% (v/v) Tween 20]. HRP (horseradish peroxidase) labeled secondary antibody (purchased from Sigma) was added, incubated at 37° C. for 2 hours, and then washed three times with plate washing solution [PBS+0.01% (v/v) Tween 20]. 1000 of TMB substrate was added to each well. After incubated at room temperature for 30 minutes, the plate was added with 100 μl of stop solution (1.0N HCl) to each well.

[12] = molecular target: T4, His-tagged CD47 recombinant protein, …; assay: ELISA on coated CD47-His; Ab 0.107 nM
Description: as §3

[13] = molecular target: T1, biotin-labeled CD47 extracellular …; assay: blocking ELISA, biotin-CD47-ECD on coated SIRPα-hFc; Ab 200 nM
Description: as §2

[14] = molecular target: T3, human CD47, full length, on transfected …; assay: FACS CHOK1-hCD47; Ab 40 nM
Description: as §1

[15] = molecular target: T2, cynomolgus CD47, on CHOK1-cCD47 stable …; assay: FACS CHOK1-cCD47; Ab 0.064 nM
Description: as §1

[16] = molecular target: T4, His-tagged CD47 recombinant protein, …; assay: ELISA on coated CD47-His; Ab 66.667 nM
Description: as §3

[17] = molecular target: T4, His-tagged CD47 recombinant protein, …; assay: ELISA on coated CD47-His; Ab 0 nM (background)
Description: as §3

[18] = molecular target: T1, biotin-labeled CD47 extracellular …; assay: blocking ELISA, biotin-CD47-ECD on coated SIRPα-hFc; Ab 8 nM
Description: as §2

[19] = molecular target: T3, human CD47, full length, on transfected …; assay: FACS CHOK1-hCD47; Ab 200 nM
Description: as §1

[20] = molecular target: T3, human CD47, full length, on transfected …; assay: FACS CHOK1-hCD47; Ab 1.6 nM
Description: as §1

[21] = molecular target: T2, cynomolgus CD47, on CHOK1-cCD47 stable …; assay: FACS CHOK1-cCD47; Ab 0.0128 nM
Description: as §1

[22] = molecular target: T3, human CD47, full length, on transfected …; assay: FACS CHOK1-hCD47; Ab 0.0128 nM
Description: as §1

[23] = molecular target: T2, cynomolgus CD47, on CHOK1-cCD47 stable …; assay: FACS CHOK1-cCD47; Ab 0 nM (background)
Description: as §1

[24] = molecular target: T1, biotin-labeled CD47 extracellular …; assay: blocking ELISA, biotin-CD47-ECD on coated SIRPα-hFc; Ab 0 nM
Description: as §2

[25] = molecular target: T4, His-tagged CD47 recombinant protein, …; assay: ELISA on coated CD47-His; Ab 0.004 nM
Description: as §3

[26] = molecular target: T1, biotin-labeled CD47 extracellular …; assay: blocking ELISA, biotin-CD47-ECD on coated SIRPα-hFc; Ab 1.6 nM
Description: as §2

[27] = molecular target: T4, His-tagged CD47 recombinant protein, …; assay: ELISA on coated CD47-His; Ab 0.021 nM
Description: as §3

[28] = molecular target: T1, biotin-labeled CD47 extracellular …; assay: blocking ELISA, biotin-CD47-ECD on coated SIRPα-hFc; Ab 0.0128 nM
Description: as §2

[29] = molecular target: T3, human CD47, full length, on transfected …; assay: FACS CHOK1-hCD47; Ab 0.064 nM
Description: as §1

[30] = molecular target: T4, His-tagged CD47 recombinant protein, …; assay: ELISA on coated CD47-His; Ab 2.667 nM
Description: as §3

[31] = molecular target: T1, biotin-labeled CD47 extracellular …; assay: blocking ELISA, biotin-CD47-ECD on coated SIRPα-hFc; Ab 40 nM
Description: as §2

[32] = molecular target: T3, human CD47, full length, on transfected …; assay: FACS CHOK1-hCD47; Ab 0 nM (background)
Description: as §1

[33] = molecular target: T4, His-tagged CD47 recombinant protein, …; assay: BLI (Octet Red 96), antibody on AHC sensor, CD47-His 100 nM
Description: The affinity constant was determined using an Octet Red 96 instrument (purchased from Fortiebio). The specific operation and method shall be in accordance with the instrument instruction and detailed method provided by the manufacturer. Specifically, the affinity was determined using a streptomycin avidin sensor (SA sensor, purchased from Fortiebio). CD47 chimeric antibody was diluted to 10 μg/ml with PBS solution containing 0.1% (w/w) BSA, 0.02% (v/v) Tween, pH 7.4, and then coupled with AHC sensor for reaction. The sensor bound with immunogen A was incubated with CD47-His protein diluted to 100 nM at 30° C. for 3 minutes, and then incubated with PBS solution containing 0.1% (w/v) BSA, 0.02% (v/v) Tween, pH 7.4 at 30° C. for 5 minutes. The change of interference wavelength was detected by Octet instrument to detect the binding and dissociation of antibody and immunogen A, and then the dissociation constant and binding constant were fitted by Octet® User Software software. The affinity constant was the ratio of the dissociation constant to the binding constant.

B1: 4D10B11 (antibody, V domains shown)
VH: QVQLQQSGPELVKPGASVKISCKASGYSFTSYYIHWVKQRPGQGLEWIGWIYPGSGNTKYNEKFKGKATLTADTSSSTADMQLSSLTSEDSAVYYCARRGDWYFDVWGTGTTVTVSS
VL: DIVMSQSPSSLVVSVGEKVTMNCKSSQSLLFSGNQKSSLAWYQQKPGQSPKLLIYWASTRESGVPDRFTGSGSGTDFTLIISTVKAEDLAVYSCQQYYSYPLTFGAGTKLELK
notes: Murine hybridoma antibody purified on protein G
In the case of B1, the “OD450 nm of CD47 bound to SIRPα” value [1] is reported as 2.45, the mean fluorescence intensity [2] is reported as 12100 and the mean fluorescence intensity [3] is reported as 8450. The “OD450 nm of CD47 bound to SIRPα” value [4] was 0.77, the OD450 nm [5] was 2.94 and the mean fluorescence intensity [6] was 1710. The mean fluorescence intensity [7] was 13900, the mean fluorescence intensity [8] was 2540 and the mean fluorescence intensity [9] was 7190. For the same binder, the mean fluorescence intensity [10] was 8870, the OD450 nm [11] was 2.91 and the OD450 nm [12] was 2.13. For the same binder, the “OD450 nm of CD47 bound to SIRPα” value [13] was 0.06, the mean fluorescence intensity [14] was 8900 and the mean fluorescence intensity [15] was 667. For the same binder, the OD450 nm [16] was 2.91, the OD450 nm [17] was 0.05 and the “OD450 nm of CD47 bound to SIRPα” value [18] was 0.06. It also gave a mean fluorescence intensity [19] of 10500, a mean fluorescence intensity [20] of 4850 and a mean fluorescence intensity [21] of 218. For the same binder, the mean fluorescence intensity [22] was 113, the mean fluorescence intensity [23] was 75.5 and the “OD450 nm of CD47 bound to SIRPα” value [24] was 2.84. For the same binder, the OD450 nm [25] was 0.18, the “OD450 nm of CD47 bound to SIRPα” value [26] was 0.15 and the OD450 nm [27] was 0.69. For the same binder, the “OD450 nm of CD47 bound to SIRPα” value [28] was 2.76, the mean fluorescence intensity [29] was 480 and the OD450 nm [30] was 3.03. For the same binder, the “OD450 nm of CD47 bound to SIRPα” value [31] was 0.06 and the mean fluorescence intensity [32] was 21.9.

B2: c4D10B11 (antibody, V domains shown)
VH: QVQLQQSGPELVKPGASVKISCKASGYSFTSYYIHWVKQRPGQGLEWIGWIYPGSGNTKYNEKFKGKATLTADTSSSTADMQLSSLTSEDSAVYYCARRGDWYFDVWGTGTTVTVSS
VL: DIVMSQSPSSLVVSVGEKVTMNCKSSQSLLFSGNQKSSLAWYQQKPGQSPKLLIYWASTRESGVPDRFTGSGSGTDFTLIISTVKAEDLAVYSCQQYYSYPLTFGAGTKLELK
B2 showed a Kd [33] of 1.06 nM, a koff [33] of 0.000284 s⁻¹ and a kon [33] of 268000 M⁻¹ s⁻¹.

B3: c25E3B5 (antibody, V domains shown)
VH: QVQLQQPGTALVRPGSSVKLSCKASGYTFTSYWMHWVRQRPIKGLEWIGNIDPSDSETHYNQRFKDKVTLTVDKSSNTAYMQLSSLTSEDSAVYYCARWKYHGIGAMDYWGQGTSVTVSS
VL: DVQITQSPSYLAASPGETVTISCRTNRNISKFLAWYQEKPGKTNKLLIYSGSTLHSGIPSRFSGSGSGTDFTLTISRLEPEDFAMYYCQQHNEYPWSFGGGTKLEIK
B3 showed a Kd [33] of 3.7 nM, a koff [33] of 0.000867 s⁻¹ and a kon [33] of 234000 M⁻¹ s⁻¹.

B4: c20H4G5 (antibody, V domains shown)
VH: QVQLQQPGAELVRPGSSVRLSCVTSGYTFTSHWMHWVKQGPIKGLEWIGNIDPSDSETHYNQKFKDKATLTVDKSSSTAYMQLSRLTSDDSAVYYCARWRHLGIGAMDYWGQGTSVIVSS
VL: DVQITQSPSYLAASPGETITINCRASKNISKFLAWYQAKPGKSNNLLIYSGSTLQSGIPSRFSGSGSGTDFTLTISRLEPEDFAMYYCQQHNEYPWTFGGGTKLEIK
In the case of B4, the Kd [33] is reported as 0.695 nM, the koff [33] is reported as 0.000202 s⁻¹ and the kon [33] is reported as 290000 M⁻¹ s⁻¹.

B5: c51E2F11 (antibody, V domains shown)
VH: EVQLQQSGAELVKPGASVKLSCTASGFNIKDHYIHWMNQRTEQGLEWIGRIDPDDGETRYAPKFRGKATLTADTSSNTAYLQFSSLTSEDTAVYHCTRATTITRDWYFDVWGTGTTVTVSS
VL: DIVMTQSQKFMSTSVGDRVSITCKASQNVRTSVAWYQQKPGQSPKALIYLASNRHTGIPDRFTGSGSGTDFTLTIRNVQSEDLADYFCLQHWDYPLTFGAGTKLELK
With B5 the Kd [33] was 2.41 nM, the koff [33] was 0.00103 s⁻¹ and the kon [33] was 428000 M⁻¹ s⁻¹.

B6: c54G8G6 (antibody, V domains shown)
VH: QVQLQQPGADLVKPGASVKMSCKASGYTFTSYWIIWVKQRPGQGLEWIGDINPGRGSPNYNEKFKRKATLTVDTSSSTAYMQLSSLTSEDSAVYYCVRGGLRRFDHWGQGTLVTVSA
VL: ENVLTQSPAIMSASPGEKVTMTCRASSSVSSSYLHWYQQKSGASPKLWIYSTSTLASGVPARFSGSGSGTSYSLTISSVEAEDAATYYCQQYSGYPYTFGGGTKLEIK
Work on B6 yielded a Kd [33] of 1.39 nM, a koff [33] of 0.000478 s⁻¹ and a kon [33] of 343000 M⁻¹ s⁻¹.

B7: c132D1E5 (antibody, V domains shown)
VH: QVQLQQPGAELVRPGSSVKLSCKASGYTFTNNWMHWVKQRPLQGLEWIGNIDPSDSETHYNQKFKDKATLTVDKSSTTAYIQLSSLTSEDSAVYYCARWRGGGRGAMDYWGQGTSVTVSS
VL: DVQITQSPSYLAASPGETITINCRTSKNISKFLAWYQEKPGKTNKLLIYSGSTLQSGIPSRFSGSGSGTDFTLTISNLEPEDFAMYYCQQHNEYPWTFGRGTKLEIK
Binder B7 has a Kd [33] of 0.982 nM, a koff [33] of 0.000362 s⁻¹ and a kon [33] of 369000 M⁻¹ s⁻¹.
